Test results reported in patent publication US20240383984A1 (Genentech, published 2024).

T1: human FcRH5 protein fragment (soluble) (human, UniProt Q96RD9 16-851)
T1 construct: whole entry named; also called soluble human FcRH5; Human FcRH5 (BIACORE analyte)
T1 sequence: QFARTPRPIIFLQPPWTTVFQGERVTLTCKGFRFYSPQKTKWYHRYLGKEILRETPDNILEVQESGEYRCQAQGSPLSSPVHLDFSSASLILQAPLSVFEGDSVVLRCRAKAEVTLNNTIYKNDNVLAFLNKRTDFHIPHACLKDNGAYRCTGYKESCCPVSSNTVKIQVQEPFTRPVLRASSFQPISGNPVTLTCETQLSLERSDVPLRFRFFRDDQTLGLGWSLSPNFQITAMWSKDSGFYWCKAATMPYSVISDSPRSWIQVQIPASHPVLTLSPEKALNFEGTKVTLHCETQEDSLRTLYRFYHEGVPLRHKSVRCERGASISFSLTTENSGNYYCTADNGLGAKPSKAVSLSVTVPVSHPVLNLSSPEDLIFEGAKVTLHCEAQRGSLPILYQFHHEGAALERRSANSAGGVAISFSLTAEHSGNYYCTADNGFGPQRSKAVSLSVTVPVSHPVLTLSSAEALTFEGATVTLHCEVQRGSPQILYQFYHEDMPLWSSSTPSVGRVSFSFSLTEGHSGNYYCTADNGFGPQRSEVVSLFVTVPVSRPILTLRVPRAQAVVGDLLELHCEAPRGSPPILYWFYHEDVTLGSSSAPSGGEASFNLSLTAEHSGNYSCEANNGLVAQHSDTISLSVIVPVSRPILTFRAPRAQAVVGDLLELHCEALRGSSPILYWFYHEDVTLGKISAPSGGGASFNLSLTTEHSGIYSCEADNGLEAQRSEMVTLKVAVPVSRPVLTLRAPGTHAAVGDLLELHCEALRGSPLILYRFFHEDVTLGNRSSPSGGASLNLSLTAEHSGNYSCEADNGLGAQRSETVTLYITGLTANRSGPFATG

T2: cynomolgus FcRH5 protein fragment (soluble) (cynomolgus monkey)
T2 construct: whole entry named; also called Cyno FcRH5 (BIACORE analyte)
T2 chain: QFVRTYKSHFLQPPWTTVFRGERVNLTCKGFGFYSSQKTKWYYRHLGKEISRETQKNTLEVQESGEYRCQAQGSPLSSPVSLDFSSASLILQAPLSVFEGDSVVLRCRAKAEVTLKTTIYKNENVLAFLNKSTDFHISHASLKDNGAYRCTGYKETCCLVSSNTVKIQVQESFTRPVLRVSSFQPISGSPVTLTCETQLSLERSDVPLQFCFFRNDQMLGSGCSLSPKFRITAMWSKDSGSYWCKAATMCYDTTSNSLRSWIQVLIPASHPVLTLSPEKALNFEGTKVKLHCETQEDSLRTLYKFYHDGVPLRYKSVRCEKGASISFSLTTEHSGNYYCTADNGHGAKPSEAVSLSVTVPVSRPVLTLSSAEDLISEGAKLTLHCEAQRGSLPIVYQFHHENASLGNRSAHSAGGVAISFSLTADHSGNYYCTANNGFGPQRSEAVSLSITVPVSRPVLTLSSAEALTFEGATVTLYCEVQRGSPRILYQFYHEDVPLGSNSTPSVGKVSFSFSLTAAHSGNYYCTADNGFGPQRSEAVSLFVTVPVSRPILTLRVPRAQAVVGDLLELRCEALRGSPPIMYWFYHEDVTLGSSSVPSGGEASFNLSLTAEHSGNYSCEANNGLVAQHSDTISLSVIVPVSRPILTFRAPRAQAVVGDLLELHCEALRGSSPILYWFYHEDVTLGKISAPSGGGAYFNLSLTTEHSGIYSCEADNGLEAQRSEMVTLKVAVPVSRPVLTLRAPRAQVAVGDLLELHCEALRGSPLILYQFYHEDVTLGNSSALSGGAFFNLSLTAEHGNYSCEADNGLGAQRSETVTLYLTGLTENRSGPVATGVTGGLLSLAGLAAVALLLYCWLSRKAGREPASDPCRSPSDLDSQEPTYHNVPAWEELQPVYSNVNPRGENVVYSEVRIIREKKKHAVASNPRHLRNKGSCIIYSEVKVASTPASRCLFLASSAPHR

T3: human FcRH1 (full-length, on SVT2 cells) (human, UniProt Q96LA6 17-429)
T3 construct: whole, on cells; also called SVT2-FcRH1
T3 sequence (looked up): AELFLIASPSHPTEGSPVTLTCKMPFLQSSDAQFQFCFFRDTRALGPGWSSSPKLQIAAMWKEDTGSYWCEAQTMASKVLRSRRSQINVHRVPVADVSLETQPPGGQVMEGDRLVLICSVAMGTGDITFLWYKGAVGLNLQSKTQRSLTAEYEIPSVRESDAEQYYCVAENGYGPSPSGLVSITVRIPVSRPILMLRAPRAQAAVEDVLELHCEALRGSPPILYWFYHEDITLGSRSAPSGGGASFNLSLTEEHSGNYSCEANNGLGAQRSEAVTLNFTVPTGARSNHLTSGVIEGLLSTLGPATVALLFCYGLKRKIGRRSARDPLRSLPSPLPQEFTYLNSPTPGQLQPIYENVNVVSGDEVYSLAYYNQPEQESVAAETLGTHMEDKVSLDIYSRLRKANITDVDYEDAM

B1: hu1G7.v1.4/38E4.v1 TDB (bispecific antibody, V domains shown)
VH 1: EVQLVESGPGLVKPSETLSLTCTVSGFSLTRFGVHWVRQPPGKGLEWLGVIWRGGSTDYNAAFMSRLTISKDNSKNQVSLKLSSVTAADTAVYYCSNHYYGSSDYALDNWGQGTLVTVSS
VL 1: DIQMTQSPSSLSASVGDRVTITCKASQDVRNLVVWFQQKPGKAPKLLIYSGSYRYSGVPSRFSGSGSGTDFTLTISSLQPEDFATYYCQQHYSPPYTFGQGTKVEIK
VH 2: EVQLVQSGAEVKKPGASVKVSCKASGFTFTSYYIHWVRQAPGQGLEWIGWIYPENDNTKYNEKFKDRVTITADTSTSTAYLELSSLRSEDTAVYYCARDGYSRYYFDYWGQGTLVTVSS
VL 2: DIVMTQSPDSLAVSLGERATINCKSSQSLLNSRTRKNYLAWYQQKPGQSPKLLIYWTSTRKSGVPDRFSGSGSGTDFTLTISSLQAEDVAVYYCKQSFILRTFGQGTKVEIK
notes: knob-into-hole TDB; also called 1G7.v1.4 TDB; 1G7.v1.4 (TDB format)
B2: 1G7.v85/38E4.v1 TDB (bispecific antibody, V domains shown)
VH 1: EVQLVESGPGLVKPSETLSLTCTVSGFSLTRFGVHWVRQPPGKGLEWLGVIWRGGSTDYNAAFVSRLTISKDNSKNQVSLKLSSVTAADTAVYYCSNHYYGSSDYALDNWGQGTLVTVSS
VL 1: DIQMTQSPSSLSASVGDRVTITCKASQDVRNLVVWFQQKPGKAPKLLIYSGSYRYSGVPSRFSGSGSGTDFTLTISSLQPEDFATYYCQQHYSPPYTFGQGTKVEIK
VH 2: EVQLVQSGAEVKKPGASVKVSCKASGFTFTSYYIHWVRQAPGQGLEWIGWIYPENDNTKYNEKFKDRVTITADTSTSTAYLELSSLRSEDTAVYYCARDGYSRYYFDYWGQGTLVTVSS
VL 2: DIVMTQSPDSLAVSLGERATINCKSSQSLLNSRTRKNYLAWYQQKPGQSPKLLIYWTSTRKSGVPDRFSGSGSGTDFTLTISSLQAEDVAVYYCKQSFILRTFGQGTKVEIK
notes: knob-into-hole TDB; also called 1G7.v85 TDB; 1G7.v85 (TDB format)

Columns and labels:
[1] = biological target: T1, human FcRH5 protein fragment (soluble); assay: SPR (BIACORE), TDB captured as ligand, Hu FcRH5 as analyte, 25 °C, 1:1 binding model
[2] = biological target: T2, cynomolgus FcRH5 protein fragment …; assay: SPR (BIACORE), TDB captured as ligand, Cyno FcRH5 as analyte, 25 °C, 1:1 binding model
[3] = biological target: T2, cynomolgus FcRH5 protein fragment …; assay: as above
[4] = biological target: T3, human FcRH1 (full-length, on SVT2 cells); assay: flow cytometry on SVT2-FcRH1 cells, PE-labelled secondary
Method: Human FcRH5, cyno FcRH5, human FcRH1, FcRH2, FcRH3, and FcRH4 transfected mouse SVT2 cells were used to test binding and cross-reactivity of FcRH5 TDBs. The method was carried out as follows. Cultured SVT2 cells were lifted using non-enzyme cell dissociation buffer (Sigma, #C5914). 1×10⁵ cells were suspended in 100 μL and incubated with FcRH5 TDBs at 3 μg/ml. […] Cells were washed twice with FACS buffer before flow cytometry analysis was carried out on a FACSCalibur.

[5] = biological target: T2, cynomolgus FcRH5 protein fragment …; assay: SPR (BIACORE), Cyno FcRH5, 1:1 binding model

Binder	Kd [1] [nM]	koff [1] [s⁻¹]	kon [1] [M⁻¹ s⁻¹]	Kd [2] [nM]	koff [2] [s⁻¹]	kon [2] [M⁻¹ s⁻¹]	Kd [3] [nM]	koff [3] [s⁻¹]	kon [3] [M⁻¹ s⁻¹]	binding result [4]	Kd [5] [nM]	koff [5] [s⁻¹]	kon [5] [M⁻¹ s⁻¹]
B1	2.41	0.00117	484000	6.27	0.000847	135000	–	–	–	–	–	–	–
B2	–	–	–	–	–	–	6.76	0.000847	125000	no binding	7.82	0.000455	58200
